Target: neuropilin-1 on adult rat brain oligodendrocytes (rat) (UniProt Q9QWJ9)

Sema3A (ligand) gave a branching index (BI) of oligodendrocyte process extension (% decrease of BI at 48 h) of 81 and a half-effect, corresponding to a BI reduction of 50% of 25 ng/mL.

From patent publication US20020119944A1
